T1: His-SUMO-Elm1(421-640) (S. cerevisiae, UniProt P32801 421-640)
T1 construct: Elm1 kinase, S. cerevisiae, residues 421-640 (C-terminal non-kinase domain); Cloned into pET-His6-Sumo-TEV-LIC (Addgene #29659); also called His6-Sumo-Elm1-C; pET-His6-Sumo-Elm1(421-640); source: E. coli Rosetta DE3, purified (His-tag resin, eluted with imidazole); not shown: His6, N-terminal, kept; SUMO, N-terminal, kept
T1 sequence (looked up): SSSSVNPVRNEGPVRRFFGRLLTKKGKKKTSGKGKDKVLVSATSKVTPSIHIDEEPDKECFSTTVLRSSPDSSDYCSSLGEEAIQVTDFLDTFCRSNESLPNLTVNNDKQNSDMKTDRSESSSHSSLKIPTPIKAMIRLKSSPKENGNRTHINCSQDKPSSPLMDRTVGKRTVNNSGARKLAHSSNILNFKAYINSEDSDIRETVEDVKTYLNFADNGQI

B1: GST-Bni5-Ext-HR2 (GST-Bni5(306-393)) (domain or fragment, S. cerevisiae, UniProt P53890 306-393, looked up)
chain: QKKMANFETRRPTNPFRVISVSSNSNSRNGSRKSSLNKYDSPVSSPITSASELGSIAKLEKRHDYLSMKCIKLQKEIDYLNKMNAQGS
notes: Bni5, S. cerevisiae, residues 306-393 (Ext plus helical region HR2); also called GST-Ext-HR2; pGEX-4T-1-Bni5(306-393); source: E. coli Rosetta DE3, purified (Glutathione Sepharose 4B); kept on the resin for pull-downs, eluted with glutathione for the septin filament assay; not shown: GST, N-terminal, kept
B2: GST-Bni5-Ext-HR2-HR3 (GST-Bni5(306-448)) (domain or fragment, S. cerevisiae, UniProt P53890 306-448, looked up)
chain: QKKMANFETRRPTNPFRVISVSSNSNSRNGSRKSSLNKYDSPVSSPITSASELGSIAKLEKRHDYLSMKCIKLQKEIDYLNKMNAQGSLSMEDGKRLHRAVVKLQEYLDKKTKEKYEVGVLLSRHLRKQIDRGENGQFWIGTK
notes: Bni5, S. cerevisiae, residues 306-448 (Ext, HR2 and HR3); also called GST-Ext-HR2-HR3; pGEX-4T-1-Bni5(306-448); source: E. coli Rosetta DE3, purified (Glutathione Sepharose 4B); kept on the resin for pull-downs, eluted with glutathione for the septin filament assay; not shown: GST, N-terminal, kept

How the values were obtained:
Conditions in all cases: both partners purified
[1] = target: T2, 4-septin complexes/filaments (Cdc11-Cdc12[His6]-Cdc3-Cdc10-Cdc10-Cdc3-Cdc12[His6]-Cdc11) (S. cerevisiae, UniProt P32458 1-415; P32468 1-407; P32457 1-520; P25342 1-322); test: co-sedimentation; 1.5 μg eluted GST fusion with 1.5 μg concentrated 4-septin or 5-septin complexes/filaments; 50 mM NaCl, 2 mM MgCl2, 15 mM imidazole, 12% glycerol, 50 mM Tris-HCl pH 7.5; 1 h at room temperature; 100,000 x g for 1 h at 4°C; pellet on Coomassie gel and anti-GST blot
T2 construct: Cdc11, S. cerevisiae septin, terminal subunit of the octamer; Cdc12, S. cerevisiae septin; Cdc3, S. cerevisiae septin; Cdc10, S. cerevisiae septin, core subunit; Octamers polymerised into filaments; copies are those of one octamer; The plasmids are from Versele et al., 2004; also called septin filaments made of Cdc11-capped octamers (four septins); four-septin complexes; source: E. coli …

[2] = target: T3, 5-septin complexes/filaments (a mixture of Cdc11-Cdc12[His6]-Cdc3-Cdc10-Cdc10-Cdc3-Cdc12[His6]-Cdc11 and … (S. cerevisiae, UniProt P32458 1-415; Q07657 1-551; P32468 1-407; P32457 1-520; P25342 1-322); test: as above
T3 construct: Cdc11, S. cerevisiae septin, terminal subunit of the Cdc11-capped octamers; Shs1, S. cerevisiae septin, terminal subunit of the Shs1-capped octamers; Cdc12, S. cerevisiae septin; Cdc3, S. cerevisiae septin; Cdc10, S. cerevisiae septin, core subunit; A mixture of two kinds of octamer, each capped by two copies of either Cdc11 or Shs1; polymerised into filaments; also called septin filaments made …

[3] = target: T1, His-SUMO-Elm1(421-640); test: pull-down; 3.5 μg GST fusion on glutathione resin with 3.5 μg His6-Sumo-Elm1-C or MBP-Myo1-mTD1; 20 mM MOPS pH 7.0, 1 mM EGTA, 150 mM NaCl, 1 mM DTT, 0.1% NP-40; 1 h; five washes; Coomassie gel and anti-6xHis or anti-MBP blot

T2 sequence (P32458 whole entry, chain 1 of 4, the tested form may be a part): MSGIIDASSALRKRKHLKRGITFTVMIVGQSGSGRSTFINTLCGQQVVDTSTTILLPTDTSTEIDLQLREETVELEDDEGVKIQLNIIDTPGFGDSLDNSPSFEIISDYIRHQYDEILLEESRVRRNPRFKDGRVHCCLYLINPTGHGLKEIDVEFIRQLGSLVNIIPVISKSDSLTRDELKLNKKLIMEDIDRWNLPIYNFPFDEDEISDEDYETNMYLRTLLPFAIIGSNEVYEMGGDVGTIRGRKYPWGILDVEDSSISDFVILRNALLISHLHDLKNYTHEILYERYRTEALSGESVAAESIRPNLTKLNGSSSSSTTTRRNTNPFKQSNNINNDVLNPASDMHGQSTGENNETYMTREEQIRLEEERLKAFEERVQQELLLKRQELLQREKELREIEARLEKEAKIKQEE
T2 sequence (P32468 whole entry, chain 2 of 4, the tested form may be a part): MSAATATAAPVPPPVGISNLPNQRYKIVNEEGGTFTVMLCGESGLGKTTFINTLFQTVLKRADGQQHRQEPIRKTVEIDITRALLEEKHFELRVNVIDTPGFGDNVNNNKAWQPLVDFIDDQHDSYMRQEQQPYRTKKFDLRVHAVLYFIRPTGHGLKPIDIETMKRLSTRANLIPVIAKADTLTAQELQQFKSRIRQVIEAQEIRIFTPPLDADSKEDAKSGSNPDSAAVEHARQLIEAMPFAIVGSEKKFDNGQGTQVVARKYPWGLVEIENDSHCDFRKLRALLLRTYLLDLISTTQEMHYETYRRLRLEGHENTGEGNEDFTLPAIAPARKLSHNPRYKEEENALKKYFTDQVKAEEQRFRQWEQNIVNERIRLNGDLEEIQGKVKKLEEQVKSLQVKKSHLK
T2 sequence (P32457 whole entry, chain 3 of 4, the tested form may be a part): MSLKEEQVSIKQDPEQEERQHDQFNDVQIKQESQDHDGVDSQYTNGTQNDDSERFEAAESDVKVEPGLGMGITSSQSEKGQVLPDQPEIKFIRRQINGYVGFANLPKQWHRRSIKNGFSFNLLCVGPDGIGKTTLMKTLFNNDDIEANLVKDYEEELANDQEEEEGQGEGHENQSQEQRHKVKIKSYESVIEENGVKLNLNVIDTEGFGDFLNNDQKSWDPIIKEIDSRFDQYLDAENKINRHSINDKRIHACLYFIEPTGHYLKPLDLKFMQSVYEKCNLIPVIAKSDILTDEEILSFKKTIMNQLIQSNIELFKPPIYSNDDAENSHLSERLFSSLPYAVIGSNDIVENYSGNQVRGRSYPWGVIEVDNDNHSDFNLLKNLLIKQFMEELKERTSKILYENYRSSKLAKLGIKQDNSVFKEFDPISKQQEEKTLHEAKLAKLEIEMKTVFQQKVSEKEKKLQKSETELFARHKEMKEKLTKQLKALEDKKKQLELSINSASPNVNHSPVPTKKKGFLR
T2 sequence (P25342 whole entry, chain 4 of 4, the tested form may be a part): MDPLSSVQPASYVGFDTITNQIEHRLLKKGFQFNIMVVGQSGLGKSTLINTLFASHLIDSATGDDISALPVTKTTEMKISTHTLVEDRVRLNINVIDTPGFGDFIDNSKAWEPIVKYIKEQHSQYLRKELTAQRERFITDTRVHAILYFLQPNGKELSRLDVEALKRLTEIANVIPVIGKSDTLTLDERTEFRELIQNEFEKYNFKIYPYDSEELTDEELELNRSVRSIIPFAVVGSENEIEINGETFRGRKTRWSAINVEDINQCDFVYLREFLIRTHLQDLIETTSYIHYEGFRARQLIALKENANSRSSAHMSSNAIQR

Binder	binding result [1]	binding result [2]	binding result [3]
B1	binds	binds	–
B2	binds	binds	binds

Reference: PMC12591035, “Bni5 regulates and coordinates septin architecture and myosin-II functions at the cell division site” (The Journal of Cell Biology, 2025)
